In the MegaScale stability set (Tsuboyama et al. 2023):

B1: EEHEE_rd4_0763 (parent)
chain: LTVHVGNVTYHFDNPEQAEEWAKRMAKKYQGQIHVKDGQFRIE

Variants of: B1
Experiment: folding stability dG (cDNA display proteolysis); higher = more stable
Conditions: PBS, room temperature

In order of falling “folding stability dG” value:
1. WTVHVGNVTYHFDNPEQAEEWAKRMAKKYQGQIHVKDGQFRIE [L1W]  3.2 kcal/mol
2. LTVHVGNVTYHFDNPEQAEEWAKRMAKKYQGQIHVKDGQFRIC [E43C]  3.04 kcal/mol
3. LTVHVGNVTYHFDNPEQAEEWAKRMAKKYQCQIHVKDGQFRIE [G31C]  2.42 kcal/mol
4. TTVHVGNVTYHFDNPEQAEEWAKRMAKKYQGQIHVKDGQFRIE [L1T]  2.05 kcal/mol
5. LTVHVGNVTYHFDNPEQAEEWAKRCAKKYQGQIHVKDGQFRIE [M25C]  2.03 kcal/mol
6. LTVHVGNVTYHFDNPEQAEEWAKRMAKKYQGQIHVKDGQYRIE [F40Y]  1.78 kcal/mol
7. LTVHVGNVTYHFDNPEQAEEWAKRMAIKYQGQIHVKDGQFRIE [K27I]  1.76 kcal/mol
8. LTVHVGRVTYHFDNPEQAEEWAKRMAKKYQGQIHVKDGQFRIE [N7R]  1.76 kcal/mol
9. LTVHVGNKTYHFDNPEQAEEWAKRMAKKYQGQIHVKDGQFRIE [V8K]  1.74 kcal/mol
10. LTVHVGNVTYHFDNPEQAEEWAKRMAKKYQGQIHVTDGQFRIE [K36T]  1.73 kcal/mol
11. LTVHVNNVTYHFDNPEQAEEWAKRMAKKYQGQIHVKDGQFRIE [G6N]  1.71 kcal/mol
12. ITVHVGNVTYHFDNPEQAEEWAKRMAKKYQGQIHVKDGQFRIE [L1I]  1.7 kcal/mol
13. LTVHVGNVTYHFDNPEQAREWAKRMAKKYQGQIHVKDGQFRIE [E19R]  1.69 kcal/mol
14. LTVHVGNVTYHFDNPDQAEEWAKRMAKKYQGQIHVKDGQFRIE [E16D]  1.59 kcal/mol
15. LTVHVGNVTYHFDNPETAEEWAKRMAKKYQGQIHVKDGQFRIE [Q17T]  1.57 kcal/mol
16. LTVHVGNVTYIFDNPEQAEEWAKRMAKKYQGQIHVKDGQFRIE [H11I]  1.56 kcal/mol
17. LTVHVGNVTYHFDNPEQAEEWAKRMAKKYQGQIAVKDGQFRIE [H34A]  1.56 kcal/mol
18. LTVHVGNVTYHFDNPEQAEEWAKRMAKKYQGEIHVKDGQFRIE [Q32E]  1.56 kcal/mol
19. LTVHVGNVTYHFDNPEQAEEWAWRMAKKYQGQIHVKDGQFRIE [K23W]  1.56 kcal/mol
20. LTVHVGQVTYHFDNPEQAEEWAKRMAKKYQGQIHVKDGQFRIE [N7Q]  1.56 kcal/mol
21. LTVHVGLVTYHFDNPEQAEEWAKRMAKKYQGQIHVKDGQFRIE [N7L]  1.55 kcal/mol
22. LTVHVGNVTFHFDNPEQAEEWAKRMAKKYQGQIHVKDGQFRIE [Y10F]  1.54 kcal/mol
23. LHVHVGNVTYHFDNPEQAEEWAKRMAKKYQGQIHVKDGQFRIE [T2H]  1.53 kcal/mol
24. LTVHVGNVTYHFDNPEYAEEWAKRMAKKYQGQIHVKDGQFRIE [Q17Y]  1.53 kcal/mol
25. LTVHVGNVTYHFDNPEQAEEWAKRMAKKYQGQIHVKDGIFRIE [Q39I]  1.52 kcal/mol
26. LTVHVGIVTYHFDNPEQAEEWAKRMAKKYQGQIHVKDGQFRIE [N7I]  1.49 kcal/mol
27. LTVHVGNVTYQFDNPEQAEEWAKRMAKKYQGQIHVKDGQFRIE [H11Q]  1.45 kcal/mol
28. LTVHVGNVTYHFDNPEQAEEWAKRMAKKYFGQIHVKDGQFRIE [Q30F]  1.43 kcal/mol
29. LTVHVGNVTYHFDNPEQAEEWAKRMAKKYQGQIHVKDGQFAIE [R41A]  1.4 kcal/mol
30. LTVHVGNVTYHFDNPEQAETWAKRMAKKYQGQIHVKDGQFRIE [E20T]  1.39 kcal/mol
31. LTVHVGNVTYHFDNPEQAEEWAKRMANKYQGQIHVKDGQFRIE [K27N]  1.39 kcal/mol
32. LTVHVGNVTYHFDQPEQAEEWAKRMAKKYQGQIHVKDGQFRIE [N14Q]  1.37 kcal/mol
33. LTVHVGNVTYHFDNPEFAEEWAKRMAKKYQGQIHVKDGQFRIE [Q17F]  1.36 kcal/mol
34. LTVHVGNVTYHFDNPEQANEWAKRMAKKYQGQIHVKDGQFRIE [E19N]  1.35 kcal/mol
35. LTVHVGNVTYAFDNPEQAEEWAKRMAKKYQGQIHVKDGQFRIE [H11A]  1.31 kcal/mol
36. LTVHVGNVTYHFDNPEQAEEWAKRMAKKVQGQIHVKDGQFRIE [Y29V]  1.27 kcal/mol
37. LTVHVGNVTYHFDNPEQGEEWAKRMAKKYQGQIHVKDGQFRIE [A18G]  1.25 kcal/mol
38. LTVHVGNVTYHFDNPEQAEEWAKRMAKKYQGQIHVKDDQFRIE [G38D]  1.25 kcal/mol
39. LTVHVGNVTYHFDNPEQAEEWAKRMAKKYQKQIHVKDGQFRIE [G31K]  1.24 kcal/mol
40. LTVHVGNVTYHFDNPEQAEEWAKRMAKKYQGQIHVKDGWFRIE [Q39W]  1.24 kcal/mol
41. LTVHVGNVTYHFDNPEQAEEWVKRMAKKYQGQIHVKDGQFRIE [A22V]  1.23 kcal/mol
42. LTVHVGNVTYHFDNPEQMEEWAKRMAKKYQGQIHVKDGQFRIE [A18M]  1.21 kcal/mol
43. LTVHVGNVTYHFDNPEQAEEWAKRMAKKYQGQIHVKDGQTRIE [F40T]  1.2 kcal/mol
44. LTVHVINVTYHFDNPEQAEEWAKRMAKKYQGQIHVKDGQFRIE [G6I]  1.18 kcal/mol
45. LNVHVGNVTYHFDNPEQAEEWAKRMAKKYQGQIHVKDGQFRIE [T2N]  1.14 kcal/mol
46. LTVHVGNVTYHFDNPEQAEEWAKRMVKKYQGQIHVKDGQFRIE [A26V]  1.09 kcal/mol
47. LTVHVGNVTYHFDNPEQAEEWAKRMAKKYQGQIHVKDGQFRAE [I42A]  1.02 kcal/mol
48. LTVHVGNVTYHFDNPEQVEEWAKRMAKKYQGQIHVKDGQFRIE [A18V]  0.996 kcal/mol
49. DTVHVGNVTYHFDNPEQAEEWAKRMAKKYQGQIHVKDGQFRIE [L1D]  0.974 kcal/mol
50. ETVHVGNVTYHFDNPEQAEEWAKRMAKKYQGQIHVKDGQFRIE [L1E]  0.877 kcal/mol
51. LTMHVGNVTYHFDNPEQAEEWAKRMAKKYQGQIHVKDGQFRIE [V3M]  0.815 kcal/mol
52. LTVHVGNVTYHFDNPEQAEEWAKRMAKKYQGQIHVKDVQFRIE [G38V]  0.809 kcal/mol
53. LTVHVGNVTYHFDNPEQKEEWAKRMAKKYQGQIHVKDGQFRIE [A18K]  0.701 kcal/mol
54. LTVHVGNVTYHFDNPEQAEEWAKRMAKGYQGQIHVKDGQFRIE [K28G]  0.692 kcal/mol
55. LTVHVGNVTYHFDNPEQAPEWAKRMAKKYQGQIHVKDGQFRIE [E19P]  0.646 kcal/mol
56. LTVHVGNVTYHFDNPEQAEEWAKRMAKKYQGQIHVKSGQFRIE [D37S]  0.634 kcal/mol
57. LTVHVGNVTYPFDNPEQAEEWAKRMAKKYQGQIHVKDGQFRIE [H11P]  0.551 kcal/mol
58. LTVHVGNVTYHFDNPEQAEEWAKRMDKKYQGQIHVKDGQFRIE [A26D]  0.393 kcal/mol
59. LTRHVGNVTYHFDNPEQAEEWAKRMAKKYQGQIHVKDGQFRIE [V3R]  0.352 kcal/mol
60. LTVHVGNVTSHFDNPEQAEEWAKRMAKKYQGQIHVKDGQFRIE [Y10S]  0.143 kcal/mol
61. LTVHVGNVTYHGDNPEQAEEWAKRMAKKYQGQIHVKDGQFRIE [F12G]  -0.264 kcal/mol
